Measurements: patent US20030113325A1 (CHILDREN S MEDICAL CENTER, published 2003)
Blank lines part the entries; values can stand above or below the binder they belong to.

What was measured:
[1] = molecular target: T1, Nogo-66 receptor (NgR), full-length, expressed on transfected cells (human, UniProt Q9BZR6 27-447); assay: saturation analysis of AP-OMgp binding to N2A cells transfected with NgR cDNA, bound AP activity
T1 construct: whole, on cells; The species of the NgR on the CHO cells is not restated; also called Nogo receptor
T1 sequence (looked up): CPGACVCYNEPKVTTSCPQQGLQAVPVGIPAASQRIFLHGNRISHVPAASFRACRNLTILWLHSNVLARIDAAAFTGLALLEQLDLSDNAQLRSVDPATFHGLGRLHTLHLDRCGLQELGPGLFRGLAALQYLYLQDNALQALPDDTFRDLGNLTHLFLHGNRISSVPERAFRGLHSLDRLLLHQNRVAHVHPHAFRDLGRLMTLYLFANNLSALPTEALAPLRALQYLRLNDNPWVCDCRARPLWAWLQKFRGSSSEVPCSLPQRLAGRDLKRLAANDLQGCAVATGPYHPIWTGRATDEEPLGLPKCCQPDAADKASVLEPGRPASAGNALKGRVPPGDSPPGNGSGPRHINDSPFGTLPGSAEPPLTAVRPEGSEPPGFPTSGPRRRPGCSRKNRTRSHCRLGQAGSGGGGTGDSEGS
Excerpt: (§1) We next took advantage of AP-OMgp binding to identify cell surface OMgp-binding proteins by expression cloning (He & Tessier-Lavigne, 1997; Flanagan and Cheng, 2000; Fournier et al., 2001). Pools of a complementary DNA expression library from adult human brain, representing approximately 250,000 independent clones, were transfected into COS-7 cells and screened for the presence of cells that bound AP-OMgp. […] After screening several rounds of subpools, we isolated two cDNAs that encoded the OMgp-binding proteins. […] We next performed coimmunoprecipitation experiments by incubating GST or a GST-NgR fusion protein containing the entire extracellular domain of NgR (GST-NgR) with AP or AP-OMgp.
Cell surface binding and expression cloning were performed as described previously (He and Tessier-Lavigne, 1997). To detect AP-OMgp binding, cultures were washed with binding buffer (Hanks balanced salt solution containing 20 mM Hepes, pH 7.5, and 1 mg/ml bovine serum albumin (BSA)). The plates were then incubated with AP-OMgp-containing binding buffer for 75 min at room temperature. After extensive washing and heat inactivation, bound AP fusion proteins were detected by AP staining using NBT and BCIP as substrate. For saturation analysis, we disrupted cells and detected bound AP fusion proteins using […] as substrate.

AP = molecular target: T2, AP (UniProt P05187 23-511, limits assumed); assay: coimmunoprecipitation of GST or GST-NgR with AP or AP-OMgp
T2 construct: Control in the coimmunoprecipitation; also called alkaline phosphatase; AP alone
Excerpt: as §1

T2 sequence (P05187 23-511 limits assumed): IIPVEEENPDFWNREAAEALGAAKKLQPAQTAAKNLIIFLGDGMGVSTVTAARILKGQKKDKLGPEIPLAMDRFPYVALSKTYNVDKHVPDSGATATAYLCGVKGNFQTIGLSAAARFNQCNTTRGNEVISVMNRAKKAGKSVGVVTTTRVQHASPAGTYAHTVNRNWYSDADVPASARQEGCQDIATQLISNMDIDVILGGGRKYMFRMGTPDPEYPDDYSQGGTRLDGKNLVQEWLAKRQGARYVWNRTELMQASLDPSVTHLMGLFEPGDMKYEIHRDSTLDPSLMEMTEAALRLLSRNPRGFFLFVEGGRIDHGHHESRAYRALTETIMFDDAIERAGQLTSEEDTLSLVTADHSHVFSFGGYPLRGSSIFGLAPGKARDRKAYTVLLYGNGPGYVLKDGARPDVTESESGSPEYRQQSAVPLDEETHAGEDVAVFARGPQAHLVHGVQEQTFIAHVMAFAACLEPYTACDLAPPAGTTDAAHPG

Kd [1]: 5 nM
B1: AP-OMgp fusion protein (ligand, mouse, UniProt Q63912 25-417, looked up)
chain: ICPLQCTCTERHRHVDCSGRNLTTLPPGLQENIIHLNLSYNHFTDLHNQLTPYTNLRTLDISNNRLESLPAQLPRSLWNMSAANNNIKLLDKSDTAYQWNLKYLDVSKNMLEKVVLIKNTLRSLEVLNLSSNKLWTVPTNMPSKLHIVDLSNNSLTQILPGTLINLTNLTHLYLHNNKFTFIPEQSFDQLLQLQEITLHNNRWSCDHKQNITYLLKWVMETKAHVIGTPCSKQVSSLKEQSMYPTPPGFTSSLFTMSEMQTVDTINSLSMVTQPKVTKTPKQYRGKETTFGVTLSKDTTFSSTDRAVVAYPEDTPTEMTNSHEAAAATLTIHLQDGMSSNASLTSATKSPPSPVTLSIARGMPNNFSEMPRQSTTLNLRREETTANGNTRPPS
notes: Secreted from COS-7 cells and purified on nickel-agarose; about 180 kDa; The order of the parts follows the name AP-OMgp; not shown: alkaline phosphatase (AP) reporter of expression vector AP-5 (Flanagan and Cheng, 2000)

binding result (AP): no binding
B2: GST-NgR fusion protein containing the entire extracellular domain of NgR (receptor, UniProt Q9BZR6 27-447, looked up)
chain: T1 sequence (looked up)
notes: extracellular domain; not shown: glutathione S-transferase (GST) fusion partner
